From paper PMC3709894, “Characterization of the Interaction between the Cohesin Subunits Rad21 and SA1/2” (PLoS ONE, 2013) come the findings set out here.

The assay has as its target T1, 6xHis-tagged SA2 (1–1051 aa), baculovirus-expressed (human, UniProt Q8N3U4 1-1051).
T1 construct: source: Sf21 insect cells, baculovirus, in cell extract; not shown: 6xHis, N-terminal, kept
T1 sequence (looked up): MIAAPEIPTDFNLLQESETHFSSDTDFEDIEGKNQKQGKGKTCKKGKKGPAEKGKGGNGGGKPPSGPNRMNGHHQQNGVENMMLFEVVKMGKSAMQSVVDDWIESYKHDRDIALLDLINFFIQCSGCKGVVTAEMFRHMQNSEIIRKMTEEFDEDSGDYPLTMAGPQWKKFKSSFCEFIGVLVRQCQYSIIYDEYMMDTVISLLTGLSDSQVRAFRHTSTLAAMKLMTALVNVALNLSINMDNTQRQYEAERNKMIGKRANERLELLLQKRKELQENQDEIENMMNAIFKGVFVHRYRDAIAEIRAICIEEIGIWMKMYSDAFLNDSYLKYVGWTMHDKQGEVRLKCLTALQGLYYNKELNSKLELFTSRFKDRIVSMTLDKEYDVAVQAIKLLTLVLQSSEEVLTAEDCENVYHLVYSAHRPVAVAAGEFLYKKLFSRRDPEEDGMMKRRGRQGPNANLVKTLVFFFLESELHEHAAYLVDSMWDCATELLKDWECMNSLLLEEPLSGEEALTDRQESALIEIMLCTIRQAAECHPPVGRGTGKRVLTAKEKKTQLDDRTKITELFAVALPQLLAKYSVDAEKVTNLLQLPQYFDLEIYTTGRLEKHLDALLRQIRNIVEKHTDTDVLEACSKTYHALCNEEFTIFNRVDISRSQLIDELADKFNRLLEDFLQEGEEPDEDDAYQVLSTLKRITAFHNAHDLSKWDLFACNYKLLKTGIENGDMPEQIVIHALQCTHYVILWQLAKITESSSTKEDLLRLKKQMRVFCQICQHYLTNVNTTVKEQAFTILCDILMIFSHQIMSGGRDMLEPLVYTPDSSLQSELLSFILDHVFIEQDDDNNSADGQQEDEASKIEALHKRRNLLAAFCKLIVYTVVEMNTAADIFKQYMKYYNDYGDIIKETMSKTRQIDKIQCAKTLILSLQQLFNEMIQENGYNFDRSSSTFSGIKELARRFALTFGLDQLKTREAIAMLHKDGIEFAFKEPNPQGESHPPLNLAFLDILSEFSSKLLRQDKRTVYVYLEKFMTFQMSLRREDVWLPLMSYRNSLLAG
Nature of the assay: SEC; complex co-expressed in Sf21 cells and purified by Ni-NTA and anion exchange, then Superose 6 gel filtration; 25 mM Tris-HCl pH 7.5, 200 mM NaCl, 5% glycerol. The settings on record: both partners purified. In general terms: SEC sorts molecules by how far they enter the pores of the column.

B1: Flag-tagged Rad21 (171–450 aa), baculovirus-expressed (domain or fragment, human, UniProt O60216 171-450, looked up)
chain: MREGSAFEDDDMLVSTTTSNLLLESEQSTSNLNEKINHLEYEDQYKDDNFGEGNDGGILDDKLISNNDGGIFDDPPALSEAGVMLPEQPAHDDMDEDDNVSMGGPDSPDSVDPVEPMPTMTDQTTLVPNEEEAFALEPIDITVKETKAKRKRKLIVDSVKELDSKTIRAQLSDYSDIVTTLDLAPPTKKLMMWKETGGVEKLFSLPAQPLWNNRLLKLFTRCLTPLVPEDLRKRRKGGEADNLDEFLKEFENPEVPREDQQQQHQQRDVIDEPIIEEPSR
notes: also called Rad21 middle region; source: Sf21 insect cells, baculovirus, in cell extract
Regarding B1, the binding result is on record as “binds”.
